Test results: US20200297818A1 (ZEALAND PHARMA A S, published 2020)
Changes are numbered by the printed parent chain.

T1: human GLP-2 receptor (hGLP2-R) (human, UniProt O95838 1-553)
T1 sequence (looked up): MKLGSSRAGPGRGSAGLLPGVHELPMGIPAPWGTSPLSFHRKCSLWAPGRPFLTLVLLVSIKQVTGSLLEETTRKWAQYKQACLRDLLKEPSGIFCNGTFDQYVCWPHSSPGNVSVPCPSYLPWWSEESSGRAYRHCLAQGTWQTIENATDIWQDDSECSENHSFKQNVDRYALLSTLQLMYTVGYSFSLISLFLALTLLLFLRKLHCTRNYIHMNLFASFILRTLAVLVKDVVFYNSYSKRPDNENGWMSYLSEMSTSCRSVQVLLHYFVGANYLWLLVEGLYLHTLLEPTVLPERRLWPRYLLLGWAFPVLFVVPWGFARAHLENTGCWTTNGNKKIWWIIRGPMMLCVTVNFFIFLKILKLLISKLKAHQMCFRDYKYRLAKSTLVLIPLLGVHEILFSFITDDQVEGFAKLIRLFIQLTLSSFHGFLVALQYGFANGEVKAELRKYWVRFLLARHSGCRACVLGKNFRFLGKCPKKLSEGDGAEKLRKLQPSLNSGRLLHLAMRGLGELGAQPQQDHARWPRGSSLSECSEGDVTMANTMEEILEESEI

B1: Compound 20 (peptide)
peptide: HXEGTFSSELATILDXQAARDFIAWLIEHKITD
HELM: PEPTIDE1{H.[Aib].E.G.T.F.S.S.E.L.A.T.I.L.D.K.Q.A.A.R.D.F.I.A.W.L.I.E.H.K.I.T.D}|PEPTIDE2{[O=C(O)CCCCCCCCCCCCCCCCC(=O)[*:2]].[gGlu]}$PEPTIDE1,PEPTIDE2,16:R3-2:R2$$$V2.0
SMILES: CC[C@H](C)[C@H](NC(=O)[C@H](Cc1ccccc1)NC(=O)[C@H](CC(=O)O)NC(=O)[C@H](CCCNC(=N)N)NC(=O)[C@H](C)NC(=O)[C@H](C)NC(=O)[C@H](CCC(N)=O)NC(=O)[C@H](CCCCNC(=O)CC[C@H](NC(=O)CCCCCCCCCCCCCCCCC(=O)O)C(=O)O)NC(=O)[C@H](CC(=O)O)NC(=O)[C@H](CC(C)C)NC(=O)[C@@H](NC(=O)[C@@H](NC(=O)[C@H](C)NC(=O)[C@H](CC(C)C)NC(=O)[C@H](CCC(=O)O)NC(=O)[C@H](CO)NC(=O)[C@H](CO)NC(=O)[C@H](Cc1ccccc1)NC(=O)[C@@H](NC(=O)CNC(=O)[C@H](CCC(=O)O)NC(=O)C(C)(C)NC(=O)[C@@H](N)Cc1c[nH]cn1)[C@@H](C)O)[C@@H](C)O)[C@@H](C)CC)C(=O)N[C@@H](C)C(=O)N[C@@H](Cc1c[nH]c2ccccc12)C(=O)N[C@@H](CC(C)C)C(=O)N[C@H](C(=O)N[C@@H](CCC(=O)O)C(=O)N[C@@H](Cc1c[nH]cn1)C(=O)N[C@@H](CCCCN)C(=O)N[C@H](C(=O)N[C@H](C(=O)N[C@@H](CC(=O)O)C(=O)O)[C@@H](C)O)[C@@H](C)CC)[C@@H](C)CC
B2: reference compound A (peptide)
peptide: B1 peptide with E3D, T5S, E28Q
HELM: PEPTIDE1{H.[Aib].D.G.S.F.S.S.E.L.A.T.I.L.D.K.Q.A.A.R.D.F.I.A.W.L.I.Q.H.K.I.T.D}|PEPTIDE2{[O=C(O)CCCCCCCCCCCCCCCCC(=O)[*:2]].[gGlu]}$PEPTIDE1,PEPTIDE2,16:R3-2:R2$$$V2.0
SMILES: CC[C@H](C)[C@H](NC(=O)[C@H](Cc1ccccc1)NC(=O)[C@H](CC(=O)O)NC(=O)[C@H](CCCNC(=N)N)NC(=O)[C@H](C)NC(=O)[C@H](C)NC(=O)[C@H](CCC(N)=O)NC(=O)[C@H](CCCCNC(=O)CC[C@H](NC(=O)CCCCCCCCCCCCCCCCC(=O)O)C(=O)O)NC(=O)[C@H](CC(=O)O)NC(=O)[C@H](CC(C)C)NC(=O)[C@@H](NC(=O)[C@@H](NC(=O)[C@H](C)NC(=O)[C@H](CC(C)C)NC(=O)[C@H](CCC(=O)O)NC(=O)[C@H](CO)NC(=O)[C@H](CO)NC(=O)[C@H](Cc1ccccc1)NC(=O)[C@H](CO)NC(=O)CNC(=O)[C@H](CC(=O)O)NC(=O)C(C)(C)NC(=O)[C@@H](N)Cc1c[nH]cn1)[C@@H](C)O)[C@@H](C)CC)C(=O)N[C@@H](C)C(=O)N[C@@H](Cc1c[nH]c2ccccc12)C(=O)N[C@@H](CC(C)C)C(=O)N[C@H](C(=O)N[C@@H](CCC(N)=O)C(=O)N[C@@H](Cc1c[nH]cn1)C(=O)N[C@@H](CCCCN)C(=O)N[C@H](C(=O)N[C@H](C(=O)N[C@@H](CC(=O)O)C(=O)O)[C@@H](C)O)[C@@H](C)CC)[C@@H](C)CC
B3: Compound 21 (peptide)
peptide: B1 peptide with E28A
HELM: PEPTIDE1{H.[Aib].E.G.T.F.S.S.E.L.A.T.I.L.D.K.Q.A.A.R.D.F.I.A.W.L.I.A.H.K.I.T.D}|PEPTIDE2{[O=C(O)CCCCCCCCCCCCCCCCC(=O)[*:2]].[gGlu]}$PEPTIDE1,PEPTIDE2,16:R3-2:R2$$$V2.0
SMILES: CC[C@H](C)[C@H](NC(=O)[C@H](CC(C)C)NC(=O)[C@H](Cc1c[nH]c2ccccc12)NC(=O)[C@H](C)NC(=O)[C@@H](NC(=O)[C@H](Cc1ccccc1)NC(=O)[C@H](CC(=O)O)NC(=O)[C@H](CCCNC(=N)N)NC(=O)[C@H](C)NC(=O)[C@H](C)NC(=O)[C@H](CCC(N)=O)NC(=O)[C@H](CCCCNC(=O)CC[C@H](NC(=O)CCCCCCCCCCCCCCCCC(=O)O)C(=O)O)NC(=O)[C@H](CC(=O)O)NC(=O)[C@H](CC(C)C)NC(=O)[C@@H](NC(=O)[C@@H](NC(=O)[C@H](C)NC(=O)[C@H](CC(C)C)NC(=O)[C@H](CCC(=O)O)NC(=O)[C@H](CO)NC(=O)[C@H](CO)NC(=O)[C@H](Cc1ccccc1)NC(=O)[C@@H](NC(=O)CNC(=O)[C@H](CCC(=O)O)NC(=O)C(C)(C)NC(=O)[C@@H](N)Cc1c[nH]cn1)[C@@H](C)O)[C@@H](C)O)[C@@H](C)CC)[C@@H](C)CC)C(=O)N[C@@H](C)C(=O)N[C@@H](Cc1c[nH]cn1)C(=O)N[C@@H](CCCCN)C(=O)N[C@H](C(=O)N[C@H](C(=O)N[C@@H](CC(=O)O)C(=O)O)[C@@H](C)O)[C@@H](C)CC
B4: Compound 23 (peptide)
peptide: B1 peptide with S7T, E28A
HELM: PEPTIDE1{H.[Aib].E.G.T.F.T.S.E.L.A.T.I.L.D.K.Q.A.A.R.D.F.I.A.W.L.I.A.H.K.I.T.D}|PEPTIDE2{[O=C(O)CCCCCCCCCCCCCCCCC(=O)[*:2]].[gGlu]}$PEPTIDE1,PEPTIDE2,16:R3-2:R2$$$V2.0
SMILES: CC[C@H](C)[C@H](NC(=O)[C@H](CC(C)C)NC(=O)[C@H](Cc1c[nH]c2ccccc12)NC(=O)[C@H](C)NC(=O)[C@@H](NC(=O)[C@H](Cc1ccccc1)NC(=O)[C@H](CC(=O)O)NC(=O)[C@H](CCCNC(=N)N)NC(=O)[C@H](C)NC(=O)[C@H](C)NC(=O)[C@H](CCC(N)=O)NC(=O)[C@H](CCCCNC(=O)CC[C@H](NC(=O)CCCCCCCCCCCCCCCCC(=O)O)C(=O)O)NC(=O)[C@H](CC(=O)O)NC(=O)[C@H](CC(C)C)NC(=O)[C@@H](NC(=O)[C@@H](NC(=O)[C@H](C)NC(=O)[C@H](CC(C)C)NC(=O)[C@H](CCC(=O)O)NC(=O)[C@H](CO)NC(=O)[C@@H](NC(=O)[C@H](Cc1ccccc1)NC(=O)[C@@H](NC(=O)CNC(=O)[C@H](CCC(=O)O)NC(=O)C(C)(C)NC(=O)[C@@H](N)Cc1c[nH]cn1)[C@@H](C)O)[C@@H](C)O)[C@@H](C)O)[C@@H](C)CC)[C@@H](C)CC)C(=O)N[C@@H](C)C(=O)N[C@@H](Cc1c[nH]cn1)C(=O)N[C@@H](CCCCN)C(=O)N[C@H](C(=O)N[C@H](C(=O)N[C@@H](CC(=O)O)C(=O)O)[C@@H](C)O)[C@@H](C)CC
B5: Compound 24 (peptide)
peptide: B1 peptide with T5S, S7T
HELM: PEPTIDE1{H.[Aib].E.G.S.F.T.S.E.L.A.T.I.L.D.K.Q.A.A.R.D.F.I.A.W.L.I.E.H.K.I.T.D}|PEPTIDE2{[O=C(O)CCCCCCCCCCCCCCCCC(=O)[*:2]].[gGlu]}$PEPTIDE1,PEPTIDE2,16:R3-2:R2$$$V2.0
SMILES: CC[C@H](C)[C@H](NC(=O)[C@H](Cc1ccccc1)NC(=O)[C@H](CC(=O)O)NC(=O)[C@H](CCCNC(=N)N)NC(=O)[C@H](C)NC(=O)[C@H](C)NC(=O)[C@H](CCC(N)=O)NC(=O)[C@H](CCCCNC(=O)CC[C@H](NC(=O)CCCCCCCCCCCCCCCCC(=O)O)C(=O)O)NC(=O)[C@H](CC(=O)O)NC(=O)[C@H](CC(C)C)NC(=O)[C@@H](NC(=O)[C@@H](NC(=O)[C@H](C)NC(=O)[C@H](CC(C)C)NC(=O)[C@H](CCC(=O)O)NC(=O)[C@H](CO)NC(=O)[C@@H](NC(=O)[C@H](Cc1ccccc1)NC(=O)[C@H](CO)NC(=O)CNC(=O)[C@H](CCC(=O)O)NC(=O)C(C)(C)NC(=O)[C@@H](N)Cc1c[nH]cn1)[C@@H](C)O)[C@@H](C)O)[C@@H](C)CC)C(=O)N[C@@H](C)C(=O)N[C@@H](Cc1c[nH]c2ccccc12)C(=O)N[C@@H](CC(C)C)C(=O)N[C@H](C(=O)N[C@@H](CCC(=O)O)C(=O)N[C@@H](Cc1c[nH]cn1)C(=O)N[C@@H](CCCCN)C(=O)N[C@H](C(=O)N[C@H](C(=O)N[C@@H](CC(=O)O)C(=O)O)[C@@H](C)O)[C@@H](C)CC)[C@@H](C)CC
B6: Compound 22 (peptide)
peptide: B1 peptide with T5S, S7T, E28A
HELM: PEPTIDE1{H.[Aib].E.G.S.F.T.S.E.L.A.T.I.L.D.K.Q.A.A.R.D.F.I.A.W.L.I.A.H.K.I.T.D}|PEPTIDE2{[O=C(O)CCCCCCCCCCCCCCCCC(=O)[*:2]].[gGlu]}$PEPTIDE1,PEPTIDE2,16:R3-2:R2$$$V2.0
SMILES: CC[C@H](C)[C@H](NC(=O)[C@H](CC(C)C)NC(=O)[C@H](Cc1c[nH]c2ccccc12)NC(=O)[C@H](C)NC(=O)[C@@H](NC(=O)[C@H](Cc1ccccc1)NC(=O)[C@H](CC(=O)O)NC(=O)[C@H](CCCNC(=N)N)NC(=O)[C@H](C)NC(=O)[C@H](C)NC(=O)[C@H](CCC(N)=O)NC(=O)[C@H](CCCCNC(=O)CC[C@H](NC(=O)CCCCCCCCCCCCCCCCC(=O)O)C(=O)O)NC(=O)[C@H](CC(=O)O)NC(=O)[C@H](CC(C)C)NC(=O)[C@@H](NC(=O)[C@@H](NC(=O)[C@H](C)NC(=O)[C@H](CC(C)C)NC(=O)[C@H](CCC(=O)O)NC(=O)[C@H](CO)NC(=O)[C@@H](NC(=O)[C@H](Cc1ccccc1)NC(=O)[C@H](CO)NC(=O)CNC(=O)[C@H](CCC(=O)O)NC(=O)C(C)(C)NC(=O)[C@@H](N)Cc1c[nH]cn1)[C@@H](C)O)[C@@H](C)O)[C@@H](C)CC)[C@@H](C)CC)C(=O)N[C@@H](C)C(=O)N[C@@H](Cc1c[nH]cn1)C(=O)N[C@@H](CCCCN)C(=O)N[C@H](C(=O)N[C@H](C(=O)N[C@@H](CC(=O)O)C(=O)O)[C@@H](C)O)[C@@H](C)CC

Molecular target: human glucagon-like peptide 1 receptor (GLP-1 R) (human, UniProt P43220 24-463)
Experiment: cell-based or functional assay

EC50 GLP-1 (nM); cAMP response [nM] | Binder
0.55 | B1
0.49 | B2
1.8 | B3
0.13 | B4
0.21 | B5
0.23 | B6

Molecular target: T1, human GLP-2 receptor (hGLP2-R)
Experiment: cell-based or functional assay

EC50 GLP-2 (nM); cAMP response [nM] | Binder
0.37 | B1
0.083 | B2
0.27 | B3
0.24 | B4
0.17 | B5
0.2 | B6
